Target: T1, Human full-length TOP2B (topoisomerase II beta) (human), Q02880
T1 chain: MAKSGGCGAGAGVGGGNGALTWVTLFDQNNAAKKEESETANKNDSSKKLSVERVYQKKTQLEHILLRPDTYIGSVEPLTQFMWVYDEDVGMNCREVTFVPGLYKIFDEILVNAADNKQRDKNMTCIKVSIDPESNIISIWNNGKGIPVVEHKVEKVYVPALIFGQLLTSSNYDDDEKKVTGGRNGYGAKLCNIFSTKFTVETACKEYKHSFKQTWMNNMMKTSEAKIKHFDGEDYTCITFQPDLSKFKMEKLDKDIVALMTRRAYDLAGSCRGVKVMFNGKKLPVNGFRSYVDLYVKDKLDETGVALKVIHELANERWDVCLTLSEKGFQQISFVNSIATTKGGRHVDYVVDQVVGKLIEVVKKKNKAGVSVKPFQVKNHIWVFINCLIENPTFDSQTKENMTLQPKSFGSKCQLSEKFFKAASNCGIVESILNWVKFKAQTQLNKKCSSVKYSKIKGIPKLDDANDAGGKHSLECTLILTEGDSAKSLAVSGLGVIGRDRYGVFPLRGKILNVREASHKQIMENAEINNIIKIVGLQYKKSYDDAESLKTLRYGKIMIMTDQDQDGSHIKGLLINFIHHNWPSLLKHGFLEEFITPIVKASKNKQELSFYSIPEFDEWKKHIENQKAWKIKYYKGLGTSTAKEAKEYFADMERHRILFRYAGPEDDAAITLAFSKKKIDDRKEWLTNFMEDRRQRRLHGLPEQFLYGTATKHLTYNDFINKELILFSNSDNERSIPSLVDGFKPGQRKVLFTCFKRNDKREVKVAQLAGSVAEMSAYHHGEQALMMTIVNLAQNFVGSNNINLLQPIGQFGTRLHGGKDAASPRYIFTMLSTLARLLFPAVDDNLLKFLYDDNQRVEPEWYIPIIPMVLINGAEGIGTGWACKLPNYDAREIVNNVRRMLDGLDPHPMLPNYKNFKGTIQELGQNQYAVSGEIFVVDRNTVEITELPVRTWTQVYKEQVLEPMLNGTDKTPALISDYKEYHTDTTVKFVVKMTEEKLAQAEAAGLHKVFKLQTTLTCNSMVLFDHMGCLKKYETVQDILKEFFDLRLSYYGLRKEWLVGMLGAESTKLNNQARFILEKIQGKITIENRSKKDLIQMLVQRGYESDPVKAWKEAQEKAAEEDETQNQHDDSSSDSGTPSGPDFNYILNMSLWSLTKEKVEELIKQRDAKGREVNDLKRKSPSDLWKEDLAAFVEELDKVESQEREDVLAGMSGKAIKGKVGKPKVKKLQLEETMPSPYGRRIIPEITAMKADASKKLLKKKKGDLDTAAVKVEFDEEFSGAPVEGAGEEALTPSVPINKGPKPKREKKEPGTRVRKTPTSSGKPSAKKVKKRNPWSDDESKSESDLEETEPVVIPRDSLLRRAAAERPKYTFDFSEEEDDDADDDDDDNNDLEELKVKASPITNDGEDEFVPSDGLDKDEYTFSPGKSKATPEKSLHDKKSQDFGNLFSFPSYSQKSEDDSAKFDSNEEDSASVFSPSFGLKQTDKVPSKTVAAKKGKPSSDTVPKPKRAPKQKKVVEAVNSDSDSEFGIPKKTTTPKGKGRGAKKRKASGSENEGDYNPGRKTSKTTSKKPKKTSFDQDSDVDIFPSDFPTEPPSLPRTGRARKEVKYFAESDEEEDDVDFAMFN
Test: cryo-EM structure; 8.3 uM TOP2B, 16.7 uM EGR1 TSS dsDNA (50 bp, -30 to +20) and 1.67 uM etoposide in 20 mM HEPES pH 8.0, 5 mM KCl, 5 mM MgCl2, 0.5 mM ATP; C2 symmetry imposed in 3D refinement (also reconstructed without it)
Conditions: remark: other sources report otherwise

stoichiometry N: 2
B1: Human full-length TOP2B (topoisomerase II beta), Q02880 1-1626 (enzyme)
chain: T1 chain

From article PMC10721843
